From publication PMC9557730 (2022)

B1: N-terminal 3×-FLAG-tagged p52 (WT) [human] / p34 [human (endogenous in HEK293T)] (parent complex)
chain 1: MESTPSRGLNRVHLQCRNLQEFLGGLSPGVLDRLYGHPATCLAVFRELPSLAKNWVMRMLFLEQPLPQAAVALWVKKEFSKAQEESTGLLSGLRIWHTQLLPGGLQGLILNPIFRQNLRIALLGGGKAWSDDTSQLGPDKHARDVPSLDKYAEERWEVVLHFMVGSPSAAVSQDLAQLLSQAGLMKSTEPGEPPCITSAGFQFLLLDTPAQLWYFMLQYLQTAQSRGMDLVEILSFLFQLSFSTLGKDYSVEGMSDSLLNFLQHLREFGLVFQRKRKSRRYYPTRLAINLSSGVSGAGGTVHQPGFIVVETNYRLYAYTESELQIALIALFSEMLYRFPNMVVAQVTRESVQQAIASGITAQQIIHFLRTRAHPVMLKQTPVLPPTITDQIRLWELERDRLRFTEGVLYNQFLSQVDFELLLAHARELGVLVFENSAKRLMVVTPAGHSDVKRFWKRQKHSS
chain 2: MVSDEDELNLLVIVVDANPIWWGKQALKESQFTLSKCIDAVMVLGNSHLFMNRSNKLAVIASHIQESRFLYPGKNGRLGDFFGDPGNPPEFNPSGSKDGKYELLTSANEVIVEEIKDLMTKSDIKGQHTETLLAGSLAKALCYIHRMNKEVKDNQEMKSRILVIKAAEDSALQYMNFMNVIFAAQKQNILIDACVLDSDSGLLQQACDITGGLYLKVPQMPSLLQYLLWVFLPDQDQRSQLILPPPVHVDYRAACFCHRNLIEIGYVCSVCLSIFCNFSPICTTCETAFKISLPPVLKAKKKKLKVSA
B2: C-terminal 3× FLAG-tagged WT Tfb2 [Saccharomyces cerevisiae] / Ssl2 [S. cerevisiae (endogenous in yeast)] (parent complex)
chain 1: MSDYSLKHSVTQYLEEIPQQVQNRLYTSPATCLAIYRILPPLAKFFIMAMVFNENEVPLLDLDKWVNSNGKLQFQNAIKSMKSLHLLIPNKSSGTLMINLNPTFKISLRNALTGGEVQNSFGVVVEENVVSLDLLDEYSANKWETILHFMVGTPLAKIPSEKVLNLLKHSKLMEEVNSTGEFKITNEGFQFLLQEINSQLWTLLLQYLKMIETSKMDLVDVLHFIFMLGALEVGKAYKIDALSETQRIMLQDMRDYGLVFQKHSNDSIFYPTKLALMLTSDTKTIRSASNAMDSVLRQNREEPSVNEDGANGKSTTDITTSDDLNKAGLKNQDIPDGSLIVETNFKIYSYSNSPLQIAVLSLFVHLKARFVNMVLGQITRESIRRALTNGITADQIIAYLETHAHPQMRRLAEEKLEKKLELDPNCKEPLQVLPPTVVDQIRLWQLELDRVITYEGSLYSDFETSQEYNLLSKYAQDIGVLLWKDDKKKKFFISKEGNSQVLDFAKRKLKKKQ
chain 2: MTDVEGYQPKSKGKIFPDMGESFFSSDEDSPATDAEIDENYDDNRETSEGRGERDTGAMVTGLKKPRKKTKSSRHTAADSSMNQMDAKDKALLQDTNSDIPADFVPDSVSGMFRSHDFSYLRLRPDHASRPLWISPSDGRIILESFSPLAEQAQDFLVTIAEPISRPSHIHEYKITAYSLYAAVSVGLETDDIISVLDRLSKVPVAESIINFIKGATISYGKVKLVIKHNRYFVETTQADILQMLLNDSVIGPLRIDSDHQVQPPEDVLQQQLQQTAGKPATNVNPNDVEAVFSAVIGGDNEREEEDDDIDAVHSFEIANESVEVVKKRCQEIDYPVLEEYDFRNDHRNPDLDIDLKPSTQIRPYQEKSLSKMFGNGRARSGIIVLPCGAGKTLVGITAACTIKKSVIVLCTSSVSVMQWRQQFLQWCTLQPENCAVFTSDNKEMFQTESGLVVSTYSMVANTRNRSHDSQKVMDFLTGREWGFIILDEVHVVPAAMFRRVVSTIAAHAKLGLTATLVREDDKIGDLNFLIGPKLYEANWMELSQKGHIANVQCAEVWCPMTAEFYQEYLRETARKRMLLYIMNPTKFQACQFLIQYHERRGDKIIVFSDNVYALQEYALKMGKPFIYGSTPQQERMNILQNFQYNDQINTIFLSKVGDTSIDLPEATCLIQISSHYGSRRQEAQRLGRILRAKRRNDEGFNAFFYSLVSKDTQEMYYSTKRQAFLVDQGYAFKVITHLHGMENIPNLAYASPRERRELLQEVLLKNEEAAGIEVGDDADNSVGRGSNGHKRFKSKAVRGEGSLSGLAGGEDMAYMEYSTNKNKELKEHHPLIRKMYYKNLKK

Variants of: B1
Assay: FLAG-IP LC–MS (iBAQ); HEK293T nuclear extracts; n = 3, biological replicates; read off a plot

Going from chain 1 E310F to chain 1 Y316A, chain 1 Y318A, the response rises from ~0.64 Normalized Log2 iBAQ to ~0.67 Normalized Log2 iBAQ.

First: chain 1 E310A, chain 1 R314A
Second: chain 1 R337A, chain 1 F338A
The response of the first is lower: ~0.67 Normalized Log2 iBAQ for the first, ~0.73 Normalized Log2 iBAQ for the second.

Variants of: B2
Assay: FLAG IP and Western blot; whole-cell extracts; FLAG-tagged Tfb2 variants coexpressed with endogenous Tfb2; two biological replicates; read off a plot

Compared with chain 1 I347A, chain 1 Y348A, chain 1 L360A, chain 1 L362A, chain 1 F363A is lower in response: ~0.23 Western Signal/Tfb2-FLAG for the first, ~0.17 Western Signal/Tfb2-FLAG for the second.

Compared with chain 1 F370A, chain 1 D439A, chain 1 E447A, chain 1 R450A is higher in response: ~0.085 Western Signal/Tfb2-FLAG for the first, ~0.58 Western Signal/Tfb2-FLAG for the second.

Going from chain 1 I347A, chain 1 Y348A, chain 1 Y350A to chain 1 Y399A, chain 1 L400A, the response rises from ~0.14 Western Signal/Tfb2-FLAG to ~0.28 Western Signal/Tfb2-FLAG.

First: chain 1 E342F
Second: chain 1 I378A, chain 1 T379A, chain 1 R380A
The response of the first is lower: ~0.085 Western Signal/Tfb2-FLAG for the first, ~0.21 Western Signal/Tfb2-FLAG for the second.

First: chain 1 I378A, chain 1 T379A
Second: chain 1 G390A, chain 1 I391A, chain 1 T392A
The response of the first is higher: ~0.29 Western Signal/Tfb2-FLAG for the first, ~0.2 Western Signal/Tfb2-FLAG for the second.

Going from chain 1 L339A, chain 1 I340A, chain 1 V341A to chain 1 Q395A, chain 1 I396A, chain 1 I397A, the response rises from ~0.11 Western Signal/Tfb2-FLAG to ~0.35 Western Signal/Tfb2-FLAG.

Going from chain 1 R369A, chain 1 F370A to chain 1 I396A, chain 1 I397A, the response rises from ~0.07 Western Signal/Tfb2-FLAG to ~0.38 Western Signal/Tfb2-FLAG.

Compared with chain 1 E342R, chain 1 K346E, chain 1 Y348A, chain 1 Y350A is higher in response: ~0.11 Western Signal/Tfb2-FLAG for the first, ~0.19 Western Signal/Tfb2-FLAG for the second.

chain 1 E447K showed a response of ~0.5 Western Signal/Tfb2-FLAG.
